The values below come from the supplement of paper PMC9428881.

± gives the standard error.

The series in a line: background-corrected fluorescence of 3'-dye-labeled ssDNA relative to brightest sequence (3'-GCGCG) (fraction); higher = brighter dye fluorescence (less quenching). A digest of the protocol:
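Each of 1024 permuted pentamers was synthesized as single-stranded DNA on glass slides by light-directed phosphoramidite chemistry, with a 3' Cy3 or Cy5 dye alongside. Arrays were scanned at 532 or 635 nm before and after overnight deprotection with ethylenediamine/ethanol. Values average 10 features per array across at least 3 syntheses. The fluorescence readout, with unlabeled-oligo background removed, is given relative to the brightest sequence.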

In the case of “TTTTTTGCTGCGCATGATGCTTTTTTTTTTTTTTTAATCA [ACTAA]”, the background-corrected fluorescence runs as follows: (dye: Cy3 (3' terminal)) 0.489 ± 0.025; (dye: Cy5 (3' terminal)) 0.382 ± 0.028.

For the sequence “TTTTTTGCTGCGCATGCGCATTTTTTTTTTTTTTTAATAT [TATAA]”, the background-corrected fluorescence reads like this: (dye: Cy3 (3' terminal)) 0.54 ± 0.022; (dye: Cy5 (3' terminal)) 0.413 ± 0.036.

Regarding “TTTTTTGCTGCGCATGCTCATTTTTTTTTTTTTTTAATAG [GATAA]”, the background-corrected fluorescence amounted to 0.535 ± 0.0083 (dye: Cy3 (3' terminal)) and 0.408 ± 0.017 (dye: Cy5 (3' terminal)).

As to “TTTTTTGCTGCGCATGCTGATTTTTTTTTTTTTTTAATAC [CATAA]”, the background-corrected fluorescence by setting is: (dye: Cy3 (3' terminal)) 0.453 ± 0.011; (dye: Cy5 (3' terminal)) 0.317 ± 0.019.

On to “TTTTTTGCTGCGCATGCTGCTTTTTTTTTTTTTTTAATAA”, for which the background-corrected fluorescence by setting is: (dye: Cy3 (3' terminal)) 0.578 ± 0.031; (dye: Cy5 (3' terminal)) 0.446 ± 0.022.

Turning to “TTTTTTGCTGCTCAGCAGCATTTTTTTTTTTTTTTAAGTT [TTGAA]”, the background-corrected fluorescence by setting is: (dye: Cy3 (3' terminal)) 0.609 ± 0.021; (dye: Cy5 (3' terminal)) 0.433 ± 0.024.

Consider “TTTTTTGCTGCTCAGCATCATTTTTTTTTTTTTTTAAGTG [GTGAA]”, for which the background-corrected fluorescence (dye: Cy3 (3' terminal)) is 0.587 ± 0.027 and the background-corrected fluorescence (dye: Cy5 (3' terminal)) was determined as 0.457 ± 0.042.

Consider “TTTTTTGCTGCTCAGCATGATTTTTTTTTTTTTTTAAGTC [CTGAA]”, for which the background-corrected fluorescence worked out at 0.438 ± 0.029 (dye: Cy3 (3' terminal)) and 0.349 ± 0.015 (dye: Cy5 (3' terminal)).

On to “TTTTTTGCTGCTCAGCATGCTTTTTTTTTTTTTTTAAGTA [ATGAA]”, for which the background-corrected fluorescence by setting is: (dye: Cy3 (3' terminal)) 0.591 ± 0.019; (dye: Cy5 (3' terminal)) 0.493 ± 0.074.

Consider “TTTTTTGCTGCTCATCAGCATTTTTTTTTTTTTTTAAGGT [TGGAA]”, for which the background-corrected fluorescence runs as follows: (dye: Cy3 (3' terminal)) 0.658 ± 0.016; (dye: Cy5 (3' terminal)) 0.585 ± 0.052.

Consider “TTTTTTGCTGCTCATCATCATTTTTTTTTTTTTTTAAGGG [GGGAA]”, for which the background-corrected fluorescence (dye: Cy3 (3' terminal)) was determined as 0.649 ± 0.021 and the background-corrected fluorescence (dye: Cy5 (3' terminal)) turned out to be 0.558 ± 0.029.

“TTTTTTGCTGCTCATCATGATTTTTTTTTTTTTTTAAGGC [CGGAA]” gave a background-corrected fluorescence (dye: Cy3 (3' terminal)) of 0.6269 ± 0.0056 and a background-corrected fluorescence (dye: Cy5 (3' terminal)) of 0.492 ± 0.038.

As to “TTTTTTGCTGCTCATCATGCTTTTTTTTTTTTTTTAAGGA [AGGAA]”, the background-corrected fluorescence by setting is: (dye: Cy3 (3' terminal)) 0.779 ± 0.02; (dye: Cy5 (3' terminal)) 0.635 ± 0.045.

“TTTTTTGCTGCTCATGAGCATTTTTTTTTTTTTTTAAGCT [TCGAA]”: the background-corrected fluorescence reads like this: (dye: Cy3 (3' terminal)) 0.56 ± 0.028; (dye: Cy5 (3' terminal)) 0.402 ± 0.026.

As to “TTTTTTGCTGCTCATGATCATTTTTTTTTTTTTTTAAGCG [GCGAA]”, the background-corrected fluorescence was 0.632 ± 0.033 (dye: Cy3 (3' terminal)) and 0.513 ± 0.033 (dye: Cy5 (3' terminal)).

Turning to “TTTTTTGCTGCTCATGATGATTTTTTTTTTTTTTTAAGCC [CCGAA]”, the background-corrected fluorescence by setting is: (dye: Cy3 (3' terminal)) 0.443 ± 0.01; (dye: Cy5 (3' terminal)) 0.312 ± 0.023.

For “TTTTTTGCTGCTCATGATGCTTTTTTTTTTTTTTTAAGCA [ACGAA]”, the background-corrected fluorescence was 0.571 ± 0.014 (dye: Cy3 (3' terminal)) and 0.451 ± 0.026 (dye: Cy5 (3' terminal)).

As to “TTTTTTGCTGCTCATGCGCATTTTTTTTTTTTTTTAAGAT [TAGAA]”, the background-corrected fluorescence was 0.564 ± 0.024 (dye: Cy3 (3' terminal)) and 0.496 ± 0.081 (dye: Cy5 (3' terminal)).

Take “TTTTTTGCTGCTCATGCTCATTTTTTTTTTTTTTTAAGAG [GAGAA]”: the background-corrected fluorescence (dye: Cy3 (3' terminal)) came out at 0.607 ± 0.036 and the background-corrected fluorescence (dye: Cy5 (3' terminal)) turned out to be 0.489 ± 0.086.

Consider “TTTTTTGCTGCTCATGCTGATTTTTTTTTTTTTTTAAGAC [CAGAA]”, for which the background-corrected fluorescence runs as follows: (dye: Cy3 (3' terminal)) 0.485 ± 0.015; (dye: Cy5 (3' terminal)) 0.363 ± 0.018.

For “TTTTTTGCTGCTCATGCTGCTTTTTTTTTTTTTTTAAGAA”, the background-corrected fluorescence runs as follows: (dye: Cy3 (3' terminal)) 0.619 ± 0.015; (dye: Cy5 (3' terminal)) 0.481 ± 0.022.

Turning to “TTTTTTGCTGCTGAGCAGCATTTTTTTTTTTTTTTAACTT [TTCAA]”, the background-corrected fluorescence was 0.523 ± 0.0097 (dye: Cy3 (3' terminal)) and 0.362 ± 0.026 (dye: Cy5 (3' terminal)).

With “TTTTTTGCTGCTGAGCATCATTTTTTTTTTTTTTTAACTG [GTCAA]”, the background-corrected fluorescence turned out to be 0.547 ± 0.024 (dye: Cy3 (3' terminal)) and 0.381 ± 0.029 (dye: Cy5 (3' terminal)).

“TTTTTTGCTGCTGAGCATGATTTTTTTTTTTTTTTAACTC [CTCAA]”: the background-corrected fluorescence (dye: Cy3 (3' terminal)) came to 0.418 ± 0.028 and the background-corrected fluorescence (dye: Cy5 (3' terminal)) came out at 0.293 ± 0.019.

Take “TTTTTTGCTGCTGAGCATGCTTTTTTTTTTTTTTTAACTA [ATCAA]”: the background-corrected fluorescence by setting is: (dye: Cy3 (3' terminal)) 0.5388 ± 0.0047; (dye: Cy5 (3' terminal)) 0.406 ± 0.019.

Take “TTTTTTGCTGCTGATCAGCATTTTTTTTTTTTTTTAACGT [TGCAA]”: the background-corrected fluorescence came to 0.606 ± 0.023 (dye: Cy3 (3' terminal)) and 0.45 ± 0.025 (dye: Cy5 (3' terminal)).

For the sequence “TTTTTTGCTGCTGATCATCATTTTTTTTTTTTTTTAACGG [GGCAA]”, the background-corrected fluorescence stood at 0.652 ± 0.019 (dye: Cy3 (3' terminal)) and 0.552 ± 0.04 (dye: Cy5 (3' terminal)).

On to “TTTTTTGCTGCTGATCATGATTTTTTTTTTTTTTTAACGC [CGCAA]”, for which the background-corrected fluorescence was found to be 0.547 ± 0.021 (dye: Cy3 (3' terminal)) and 0.436 ± 0.057 (dye: Cy5 (3' terminal)).

Regarding “TTTTTTGCTGCTGATCATGCTTTTTTTTTTTTTTTAACGA [AGCAA]”, the background-corrected fluorescence turned out to be 0.613 ± 0.0098 (dye: Cy3 (3' terminal)) and 0.519 ± 0.07 (dye: Cy5 (3' terminal)).
